Measurements taken from article doi:10.1101/2021.08.25.457658.
Read-outs that look alike come from different tables or passages of the source.

B1: Spic promoter NF-kB site mutant (dsDNA)
DNA 1: GCTGCAAAGCCGATTTTTTTT
DNA 2: AAAAAAAATCGGCTTTGCAGC
B2: Spic promoter NF-kB site WT (dsDNA)
DNA 1: GCTGCAAAGGGGATTTTTTTT
DNA 2: AAAAAAAATCCCCTTTGCAGC

Tests used:
[1] = biological target: T1, GST-p50 (NF-kB p50 subunit) (UniProt P19838-2 1-433, del434-969); assay: EMSA
[2] = biological target: T1, GST-p50 (NF-kB p50 subunit); assay: EMSA; remark: listed apart in the source

| Binder | binding result [1] | binding result [2] |
| --- | --- | --- |
| B1 | no binding |  |
| B2 |  | binds |
